The values that follow come from patent US20220332804A1 (CSL INNOVATION, published 2022).

Experiment [1] deals with T1, cynomolgus monkey FcRn/β2m (cynomolgus monkey, UniProt Q8SPV9 24-297; Q8SPW0 21-119, limits assumed).
T1 construct: injected in solution over immobilised antibody; also called Cyno FcRn/β2m
Description: SPR, immobilised antibody, cyno FcRn/b2m analyte, pH 7.3. (SPR reads the build-up and loss of mass on a sensor chip optically.)
Description: (§1) Anti-C2 mAbs (1 μg/mL at pH 5) were immobilized on a carboxylmethyldextran (CM5) sensorchip surface using standard EDC/NHS chemistry. Human and Cyno FcRn/β2m (40 μM) were prepared in running buffer (10 mM HEPES, 150 mM NaCl, 10 mM MES adjusted to either pH 6 or pH 7.3) and injected on the immobilized anti-C2 surface at concentrations ranging from 0.078 to 40 μM, prepared in two-fold dilutions in running buffer. Association and dissociation phases were monitored for 180 and 600 seconds, respectively. […] Double referenced sensorgrams were fitted to either a 1:1 kinetic model (pH 6), including a term for mass transport limitation or to a 1:1 steady state model (pH 7.3) where responses at the end of the association phase were plotted against respective concentrations.
(§2) Binding to both human and cynomolgus monkey FcRn was tested using the SPR methods described above.

In experiment [2] the target is T2, human complement C2 zymogen (human, UniProt P06681 21-752).
T2 construct: also called huC2; human C2
T2 sequence: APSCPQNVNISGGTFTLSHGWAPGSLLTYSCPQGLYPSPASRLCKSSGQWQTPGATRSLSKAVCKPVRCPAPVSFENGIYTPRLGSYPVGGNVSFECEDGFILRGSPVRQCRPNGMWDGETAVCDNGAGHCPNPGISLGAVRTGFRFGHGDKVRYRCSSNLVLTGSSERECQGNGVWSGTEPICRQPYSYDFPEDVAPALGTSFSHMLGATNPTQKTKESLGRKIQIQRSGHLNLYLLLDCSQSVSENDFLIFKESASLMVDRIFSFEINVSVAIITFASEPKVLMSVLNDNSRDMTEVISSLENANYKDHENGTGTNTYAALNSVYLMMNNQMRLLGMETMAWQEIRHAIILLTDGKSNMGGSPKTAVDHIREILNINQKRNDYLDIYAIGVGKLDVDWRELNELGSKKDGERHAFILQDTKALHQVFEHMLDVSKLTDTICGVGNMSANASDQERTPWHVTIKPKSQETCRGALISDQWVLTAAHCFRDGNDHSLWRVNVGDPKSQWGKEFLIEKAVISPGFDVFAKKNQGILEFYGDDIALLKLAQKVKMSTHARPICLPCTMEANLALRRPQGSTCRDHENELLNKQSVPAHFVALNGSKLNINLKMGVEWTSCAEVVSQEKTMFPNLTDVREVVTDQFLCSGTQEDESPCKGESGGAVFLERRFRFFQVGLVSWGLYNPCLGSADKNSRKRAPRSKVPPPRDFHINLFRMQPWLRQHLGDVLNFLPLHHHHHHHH
The experiment is described as follows: SPR kinetics, captured antibody, analyte huC2 2000 mM Ca^2+ (so in the source), pH 7.3.
Description: (§3) Surface plasmon resonance (SPR, Biacore) was used for all binding affinity analyses. In brief, goat anti-human IgG was directly immobilised onto the carboxymethyl dextran surface of CM5 sensorchips to approximately 12,000 RU using standard NHS/EDC chemistry at pH 5. The immobilised antibody surface was pre-conditioned with ten injections of polyclonal human IgG (Privigen 60 s) prepared at 1 μg/mL. Ligands (anti-C2 mAbs) were captured at the beginning of each cycle as described below. An adjacent spot or flow cell in which only Polyclonal IgG was capture was used as a reference surface. The goat anti-human IgG Fc antibody surface was regenerate in 100 mM H3PO4, injected for 45 seconds at the end of each cycle. Experiments were performed at 37° C. and the flow rate of each experiment was kept constant at 30 μL/min.

Experiment [3] has as its target T2, human complement C2 zymogen. The experiment is described as follows: SPR steady state, captured antibody, analyte huC2 200 mM Ca^2+ (so in the source), pH 6.0.
Experiment [4] shares this target. Description: SPR kinetics, captured antibody, analyte huC2 0 mM Ca^2+, pH 7.3.
Description: as §3
Experiment [5] shares this target. Description: SPR kinetics, captured antibody, analyte huC2 2 mM Ca^2+ (so in the source), pH 7.3.
Description: as §3
The target of experiment [6] is T1, cynomolgus monkey FcRn/β2m. The experiment is described as follows: SPR, immobilised antibody, cyno FcRn/b2m analyte, pH 6.0.
Description: as §1, §2
The target of experiment [7] is T2, human complement C2 zymogen. Description: SPR steady state, captured antibody, analyte huC2 0 mM Ca^2+, pH 6.0.
For experiment [8] the target is unchanged. The experiment is described as follows: SPR steady state, captured antibody, analyte huC2 2000 mM Ca^2+ (so in the source), pH 6.0.
Experiment [9] shares this target. The experiment is described as follows: SPR steady state, captured antibody, analyte huC2 20 mM Ca^2+ (so in the source), pH 6.0.
For experiment [10] the target is unchanged. Description: SPR kinetics, captured antibody, analyte huC2 20 mM Ca^2+ (so in the source), pH 7.3.
Description: as §3
For experiment [11] the target is unchanged. The experiment is described as follows: SPR kinetics, captured antibody, analyte huC2 200 mM Ca^2+ (so in the source), pH 7.3.
Description: as §3

T1 sequence (Q8SPV9 24-297 limits assumed, chain 1 of 2): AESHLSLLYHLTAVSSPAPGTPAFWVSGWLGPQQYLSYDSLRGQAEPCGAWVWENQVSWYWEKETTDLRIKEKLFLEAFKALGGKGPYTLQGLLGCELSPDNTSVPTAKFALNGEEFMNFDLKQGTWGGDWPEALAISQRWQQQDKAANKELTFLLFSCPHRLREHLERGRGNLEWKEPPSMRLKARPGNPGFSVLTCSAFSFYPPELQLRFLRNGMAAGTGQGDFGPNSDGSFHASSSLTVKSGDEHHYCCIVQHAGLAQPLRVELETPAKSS
T1 sequence (Q8SPW0 21-119 limits assumed, chain 2 of 2): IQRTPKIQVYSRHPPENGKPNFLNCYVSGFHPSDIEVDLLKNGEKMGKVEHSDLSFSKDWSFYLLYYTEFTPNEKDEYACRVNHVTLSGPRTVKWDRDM

B1: RF16-226 YPY (Fc mutations M252Y, V308P, N434Y) (antibody, human IgG4 S228P, lambda)
heavy: EVQLVQSGAEVKKPGESLKISCKGSGYSFTSYWIGWVRQMPGKGLEWMGIIYPGDSDTRYSPSFQGQVTISADKSISTAYLQWSSLKASDTAMYYCARRFSYSSGWDMWGQGTLVTVSSASTKGPSVFPLAPCSRSTSESTAALGCLVKDYFPEPVTVSWNSGALTSGVHTFPAVLQSSGLYSLSSVVTVPSSSLGTKTYTCNVDHKPSNTKVDKRVESKYGPPCPPCPAPEFLGGPSVFLFPPKPKDTLYISRTPEVTCVVVDVSQEDPEVQFNWYVDGVEVHNAKTKPREEQFNSTYRVVSVLTPLHQDWLNGKEYKCKVSNKGLPSSIEKTISKAKGQPREPQVYTLPPSQEEMTKNQVSLTCLVKGFYPSDIAVEWESNGQPENNYKTTPPVLDSDGSFFLYSRLTVDKSRWQEGNVFSCSVMHEALHYHYTQKSLSLSLGK
light: SYELTQPPSVSVSPGQTARITCSGDALTSKYVAWYQQKSGLAPLLVIYEDTRRPSGIPAKFSGSSSGSVATLTISGAHGDDEADYYCYSTDASGHQRVFGGGTKLTVLSQPKAAPSVTLFPPSSEELQANKATLVCLISDFYPGAVTVAWKADGSPVKAGVETTKPSKQSNNKYAASSYLSLTPEQWKSHRSYSCQVTHEGSTVEKTVAPTECS
With B1, the Kd was determined as 1100 nM in experiment [1]; 10.2 nM in [2]; 91.9 nM in experiment [3]; 8.5 nM in [4]; 8.7 nM in experiment [6]; 87.3 nM in experiment [7]. Further, the dissociation constant Kd in experiment [8] turned out to be 102 nM; in [9], 83.1 nM; in [10], 8.4 nM; in experiment [11], 8.8 nM. Further, the dissociation rate constant (koff) in experiment [2] was 0.00584 s⁻¹; in experiment [4], 0.00493 s⁻¹; in experiment [10], 0.00526 s⁻¹; in experiment [11], 0.00539 s⁻¹. Moreover, the kon in [4] stood at 578000 M⁻¹ s⁻¹; in experiment [5], 572000 M⁻¹ s⁻¹; in experiment [10] it was 626000 M⁻¹ s⁻¹; in [11], 612000 M⁻¹ s⁻¹.

For orientation: Kd means a measure of binding affinity in units of concentration. Broadly, the koff is the first-order rate constant of dissociation. One may read the kon as a measure of how fast the partners come together.
